This series deals with the molecule itself. In words: crystal structure.

The source of these data is paper PMC3902929 (Nucleic Acids Research, 2013).

B1: Clostridium thermocellum polynucleotide kinase (CthPnk) mutant D38N (enzyme, UniProt A3DJ38 1-170, looked up)
chain: MKLTIPELSLVVLIGSSGSGKSTFAKKHFKPTEVISSNFCRGLVSDDENDQTVTGAAFDVLHYIVSKRLQLGKLTVVDATNVQESARKPLIEIAKDYHCFPVAVVFNLPEKVCQERNKNRTDRQVEEYVIRKHTQQMKKSIKGLQREGFRYVYILNSPEEVEEVVFERQP
For B1, the binding result is recorded as “binds”.
